The target in one series is T1, TolA (residues 34–421) (Escherichia coli K12, UniProt P19934 34-421, RED-tris-NTA dye on the His tag).
T1 construct: TolA of Escherichia coli K12, residues 34-421, amplified from genomic DNA into a modified pET28a; also called soluble TolA; TolA with the periplasmic loop TolA_β; source: E. coli BL21(DE3), purified (Ni-NTA column, desalting); not shown: 8x His, C-terminal, kept
T1 sequence (looked up): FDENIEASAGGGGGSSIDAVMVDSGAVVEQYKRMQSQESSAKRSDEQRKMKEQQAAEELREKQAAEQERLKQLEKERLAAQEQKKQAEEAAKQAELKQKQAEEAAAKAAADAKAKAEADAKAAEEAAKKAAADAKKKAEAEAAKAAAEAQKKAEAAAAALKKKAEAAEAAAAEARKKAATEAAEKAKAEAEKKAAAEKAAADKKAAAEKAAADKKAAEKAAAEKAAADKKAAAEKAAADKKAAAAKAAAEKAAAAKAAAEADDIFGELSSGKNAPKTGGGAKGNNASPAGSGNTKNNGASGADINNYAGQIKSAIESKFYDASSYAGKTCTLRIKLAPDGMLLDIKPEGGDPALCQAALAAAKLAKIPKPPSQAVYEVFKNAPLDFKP
In words: MST; TolA labelled with RED-tris-NTA dye, fixed at 50 nM; TolR titrated in 16 points from 150 μM to 4.58 nM; 20 mM HEPES pH 7.8, 150 mM NaCl; 25 °C; Monolith NT.115. Particulars: both partners purified.

The next series deals with T2, TolA (residues 58–421) (Escherichia coli K12, UniProt P19934 58-421, RED-tris-NTA dye on the His tag).
T2 construct: TolA of Escherichia coli K12, residues 58-421, amplified from genomic DNA into a modified pET28a; also called soluble TolA without TolA_β; source: E. coli BL21(DE3), purified (Ni-NTA column, desalting); not shown: 8x His, C-terminal, kept
T2 sequence (looked up): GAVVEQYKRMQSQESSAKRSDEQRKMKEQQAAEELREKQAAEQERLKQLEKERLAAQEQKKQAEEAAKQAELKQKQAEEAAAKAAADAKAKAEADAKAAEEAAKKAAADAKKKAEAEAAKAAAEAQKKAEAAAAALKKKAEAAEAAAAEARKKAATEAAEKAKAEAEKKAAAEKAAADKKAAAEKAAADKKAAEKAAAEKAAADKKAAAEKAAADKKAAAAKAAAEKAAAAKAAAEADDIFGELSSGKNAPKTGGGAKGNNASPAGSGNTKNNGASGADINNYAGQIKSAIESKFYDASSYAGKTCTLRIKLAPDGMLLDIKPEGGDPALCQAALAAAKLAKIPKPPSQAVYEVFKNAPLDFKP
The series is described as above. As to conditions: both partners purified.

Series [1] concerns the molecule itself. Nature of the series: cryo-EM structure; TolQRA co-expressed, purified by the His tag of TolA in DDM/CHS then LMNG/CHS, reconstituted in MSP1D1 nanodiscs with E. coli total lipid extract; 20 mM Tris pH 7.8, 150 mM NaCl; classes with one, two or three TolA.

From article PMC12583513, “Deciphering the molecular mechanism of the bacterial division motor TolQRA” (Cell Discovery, 2025) come the findings set out here.

For orientation: stoichiometry N means the number of molecules, sites or subunits per partner or assembly.

Values joined by “and” are separate entries in the source; they are usually repeats but may differ in a detail not shown here. Equal values may be shown once.

B1: TolR (residues 60–133) (domain or fragment, Escherichia coli K12, UniProt P0ABV6 60-133, looked up)
chain: DNPPVIVEVSGIGQYTVVVEKDRLERLPPEQVVAEVSSRFKANPKTVFLIGGAKDVPYDEIIKALNLLHSAGVK
notes: TolR of Escherichia coli K12, residues 60-133 of the periplasmic domain, amplified from genomic DNA into a modified pET28a; also called TolR^60–133; TolR lacking both β1/α1 and β6; source: E. coli BL21(DE3), purified (Strep-Tactin column, desalting)
On to B1, for which the binding result with TolA (residues 34–421) and with TolA (residues 58–421) was “binds” each time.

B2: TolQ (natural protein, Escherichia coli (strain K12))
chain: MTDMNILDLFLKASLLVKLIMLILIGFSIASWAIIIQRTRILNAAAREAEAFEDKFWSGIELSRLYQESQGKRDNLTGSEQIFYSGFKEFVRLHRANSHAPEAVVEGASRAMRISMNRELENLETHIPFLGTVGSISPYIGLFGTVWGIMHAFIALGAVKQATLQMVAPGIAEALIATAIGLFAAIPAVMAYNRLNQRVNKLELNYDNFMEEFTAILHRQAFTVSESNKG
notes: TolQ of Escherichia coli strain K12; the operon encoding TolQRA was cloned into pTRC99a; no tag on TolQ in this construct; The whole tolQRA operon was cloned, so the whole gene is implied; a minor hexameric class (six TolQ subunits) was also seen; also called TolQ1; TolQ2; source: E. coli C43 (DE3), co-expressed from pTRC99a-TolQR(Strep)A(His), purified as complex (HisTrap + Superdex 200, …)
On to B2, for which the “stoichiometry N” value in series [1] was 5 and 6.
